Experiments:
[1] = tested on: HeLa Kyoto; experiment: melting temperature (median over replicates), in situ; higher = more thermally stable
[2] = tested on: HeLa Kyoto; experiment: solubility in G1/S (NP-40 vs SDS abundance) (log2 ratio); higher = more soluble; settings: cell cycle stage: G1/S
[3] = tested on: HeLa Kyoto; experiment: thermal stability score vs G1/S (z-score of summed log2 fold changes over temperatures); higher = more thermally stable than in G1/S
[4] = tested on: HeLa Kyoto; experiment: solubility change mitosis vs G1/S (difference of NP-40 vs SDS log2 ratios) (log2 ratio difference); higher = more soluble in mitosis
[5] = cell cycle stage: early G1 (4.5 h after nocodazole release)
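Throughout, for melting temperature (median over replicates), in situ: HeLa Kyoto cells synchronized by double thymidine or nocodazole block, proteins quantified by TMT10plex mass spectrometry, three independent biological replicates.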
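Throughout, for solubility change mitosis vs G1/S (difference of NP-40 vs SDS log2 ratios): synchronized HeLa Kyoto cells (double thymidine block for G1/S, nocodazole release for mitosis), protein amounts in NP-40 versus SDS lysates quantified by mass spectrometry, three biological replicates.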
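Throughout, for solubility in G1/S (NP-40 vs SDS abundance): HeLa Kyoto cells arrested at G1/S by double thymidine block, proteins quantified by TMT10plex mass spectrometry in mild NP-40 versus SDS extracts, three biological replicates.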
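Throughout, for thermal stability score vs G1/S (z-score of summed log2 fold changes over temperatures): synchronized HeLa Kyoto cells, proteins quantified by TMT10plex mass spectrometry, three biological replicates, mitosis taken 0.5 h after nocodazole release, G1/S directly after double thymidine block.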

Question: “MDTCGVGYVALGEAGPVGNMTVVDSPGQEVLNQLDVKTSSEMTSAEASVEMSLPTPLPGFEDSPDQRRLPPEQESLSRLEQPDLSSEMSKVSKPRASKPGRKRGGRTRKGPKRPQQPNPPSAPLVPGLLDQSNPLSTPMPKKRGRKSKAELLLLKLSKDLDRPESQSPKRPPEDFETPSGERPRRRAAQVALLYLQELAEELSTALPAPVSCPEGPKVSSPTKPKKIRQPAACPGGEEVDGAPRDEDFFLQVEAEDVEESEGPSESSSEPEPVVPRSTPRGSTSGKQKPHCRGMAPNGLPNHIMAPVWKCLHLTKDFREQKHSYWEFAEWIPLAWKWHLLSELEAAPYLPQEEKSPLFSVQREGLPEDGTLYRINRFSSITAHPERWDVSFFTGGPLWALDWCPVPEGAGASQYVALFSSPDMNETHPLSQLHSGPGLLQLWGLGTLQQESCPGNRAHFVYGIACDNGCIWDLKFCPSGAWELPGTPRKAPLLPRLGLLALACSDGKVLLFSLPHPEALLAQQPPDAVKPAIYKVQCVATLQVGSMQATDPSECGQCLSLAWMPTRPHQHLAAGYYNGMVVFWNLPTNSPLQRIRLSDGSLKLYPFQCFLAHDQAVRTLQWCKANSHFLVSAGSDRKIKFWDLRRPYEPINSIKRFLSTELAWLLPYNGVTVAQDNCYASYGLCGIHYIDAGYLGFKAYFTAPRKGTVWSLSGSDWLGTIAAGDISGELIAAILPDMALNPINVKRPVERRFPIYKADLIPYQDSPEGPDHSSASSGVPNPPKARTYTETVNHHYLLFQDTDLGSFHDLLRREPMLRMQEGEGHSQLCLDRLQLEAIHKVRFSPNLDSYGWLVSGGQSGLVRIHFVRGLASPLGHRMQLESRAHFNAMFQPSSPTRRPGFSPTSHRLLPTP [GTF3C2]” was tested. Which melting temperature ([1]; cell cycle stage: G1/S) did it give?
Answer: 46.5 °C

Question: What about the melting temperature ([1]; cell cycle stage: mitosis) of the same sequence?
Answer: 49.5 °C

Question: What about the “solubility in G1/S (log2)” value [2] of the same sequence?
Answer: -0.18

Question: What about the thermal stability score [3, 5] of the same sequence?
Answer: 2.79

Question: What about the thermal stability score ([3]; cell cycle stage: mitosis) of the same sequence?
Answer: 6.24

Question: What about the “solubility change mitosis (log2)” value [4] of the same sequence?
Answer: 0.119

Question: What does the source list for “MDTDLYDEFGNYIGPELDSDEDDDELGRETKDLDEMDDDDDDDDVGDHDDDHPGMEVVLHEDKKYYPTAEEVYGPEVETIVQEEDTQPLTEPIIKPVKTKKFTLMEQTLPVTVYEMDFLADLMDNSELIRNVTLCGHLHHGKTCFVDCLIEQTHPEIRKRYDQDLCYTDILFTEQERGVGIKSTPVTVVLPDTKGKSYLFNIMDTPGHVNFSDEVTAGLRISDGVVLFIDAAEGVMLNTERLIKHAVQERLAVTVCINKIDRLILELKLPPTDAYYKLRHIVDEVNGLISMYSTDENLILSPLLGNVCFSSSQYSICFTLGSFAKIYADTFGDINYQEFAKRLWGDIYFNPKTRKFTKKAPTSSSQRSFVEFILEPLYKILAQVVGDVDTSLPRTLDELGIHLTKEELKLNIRPLLRLVCKKFFGEFTGFVDMCVQHIPSPKVGAKPKIEHTYTGGVDSDLGEAMSDCDPDGPLMCHTTKMYSTDDGVQFHAFGRVLSGTIHAGQPVKVLGENYTLEDEEDSQICTVGRLWISVARYHIEVNRVPAGNWVLIEGVDQPIVKTATITEPRGNEEAQIFRPLKFNTTSVIKIAVEPVNPSELPKMLDGLRKVNKSYPSLTTKVEESGEHVILGTGELYLDCVMHDLRKMYSEIDIKVADPVVTFCETVVETSSLKCFAETPNKKNKITMIAEPLEKGLAEDIENEVVQITWNRKKLGEFFQTKYDWDLLAARSIWAFGPDATGPNILVDDTLPSEVDKALLGSVKDSIVQGFQWGTREGPLCDELIRNVKFKILDAVVAQEPLHRGGGQIIPTARRVVYSAFLMATPRLMEPYYFVEVQAPADCVSAVYTVLARRRGHVTQDAPIPGSPLYTIKAFIPAIDSFGFETDLRTHTQGQAFSLSVFHHWQIVPGDPLDKSIVIRPLEPQPAPHLAREFMIKTRRRKGLSEDVSISKFFDDPMLLELAKQDVVLNYPM [EFTUD2]”?
Answer: melting temperature ([1]; cell cycle stage: G1/S): 57.4 °C; melting temperature ([1]; cell cycle stage: mitosis): 56.2 °C; solubility in G1/S (log2) [2]: -0.443; thermal stability score [3, 5]: -1.97; thermal stability score ([3]; cell cycle stage: mitosis): -2.33; solubility change mitosis (log2) [4]: 0.215

Question: For “MDTEGFGELLQQAEQLAAETEGISELPHVERNLQEIQQAGERLRSRTLTRTSQETADVKASVLLGSRGLDISHISQRLESLSAATTFEPLEPVKDTDIQGFLKNEKDNALLSAIEESRKRTFGMAEEYHRESMLVEWEQVKQRILHTLLASGEDALDFTQESEPSYISDVGPPGRSSLDNIEMAYARQIYIYNEKIVNGHLQPNLVDLCASVAELDDKSISDMWTMVKQMTDVLLTPATDALKNRSSVEVRMEFVRQALAYLEQSYKNYTLVTVFGNLHQAQLGGVPGTYQLVRSFLNIKLPAPLPGLQDGEVEGHPVWALIYYCMRCGDLLAASQVVNRAQHQLGEFKTWFQEYMNSKDRRLSPATENKLRLHYRRALRNNTDPYKRAVYCIIGRCDVTDNQSEVADKTEDYLWLKLNQVCFDDDGTSSPQDRLTLSQFQKQLLEDYGESHFTVNQQPFLYFQVLFLTAQFEAAVAFLFRMERLRCHAVHVALVLFELKLLLKSSGQSAQLLSHEPGDPPCLRRLNFVRLLMLYTRKFESTDPREALQYFYFLRDEKDSQGENMFLRCVSELVIESREFDMILGKLENDGSRKPGVIDKFTSDTKPIINKVASVAENKGLFEEAAKLYDLAKNADKVLELMNKLLSPVVPQISAPQSNKERLKNMALSIAERYRAQGISANKFVDSTFYLLLDLITFFDEYHSGHIDRAFDIIERLKLVPLNQESVEERVAAFRNFSDEIRHNLSEVLLATMNILFTQFKRLKGTSPSSSSRPQRVIEDRDSQLRSQARTLITFAGMIPYRTSGDTNARLVQMEVLMN [NUP93]”, which melting temperature ([1]; cell cycle stage: G1/S) is on record?
Answer: 51.9 °C

Question: And the melting temperature ([1]; cell cycle stage: mitosis)?
Answer: 48.3 °C

Question: What about the “solubility in G1/S (log2)” value [2] of the same sequence?
Answer: -0.149

Question: What about the thermal stability score [3, 5] of the same sequence?
Answer: -3.26

Question: And the thermal stability score ([3]; cell cycle stage: mitosis)?
Answer: -4.55

Question: And the “solubility change mitosis (log2)” value [4]?
Answer: 0.117

Question: With “MDTPPLSDSESESDESLVTDRELQDAFSRGLLKPGLNVVLEGPKKAVNDVNGLKQCLAEFKRDLEWVERLDVTLGPVPEIGGSEAPAPQNKDQKAVDPEDDFQREMSFYRQAQAAVLAVLPRLHQLKVPTKRPTDYFAEMAKSDLQMQKIRQKLQTKQAAMERSEKAKQLRALRKYGKKVQTEVLQKRQQEKAHMMNAIKKYQKGFSDKLDFLEGDQKPLAQRKKAGAKGQQMRKGPSAKRRYKNQKFGFGGKKKGSKWNTRESYDDVSSFRAKTAHGRGLKRPGKKGSNKRPGKRTREKMKNRTH [EBNA1BP2]” as the sequence, how does the melting temperature ([1]; cell cycle stage: G1/S) read?
Answer: 54 °C

Question: What about the melting temperature ([1]; cell cycle stage: mitosis) of the same sequence?
Answer: 53.4 °C

Question: What about the “solubility in G1/S (log2)” value [2] of the same sequence?
Answer: -1.71

Question: What about the thermal stability score [3, 5] of the same sequence?
Answer: 0.765

Question: What about the thermal stability score ([3]; cell cycle stage: mitosis) of the same sequence?
Answer: 0.121

Question: What about the “solubility change mitosis (log2)” value [4] of the same sequence?
Answer: 1.38

Reference: the supplement of paper PMC5998384
